Patent US20200316217A1 (CHILDREN S MEDICAL CENTER, published 2020)
Ends that are not written are not given here.

Legend:
PTHR1YFPΔECD [1] = target: T1, PTHR1YFPΔECD (human); test: flow cytometry, AlexaFluor647-VHH on stably transfected HEK293 cells
T1 construct: PTHR1 in which YFP replaces the entire extracellular domain; Stably expressed on HEK293 cells (GD5); also called Human PTHR1-delNT-YFP; hPTHR1YFPΔECD
Protocol: (§1) FIGS. 14A-14B: Binding of VHHs to HEK293 cell lines stably transfected with PTHRs. (FIG. 14A) Analysis of VHH binding to PTHR1, PTHR2 and variants by flow cytometry. HEK293 cell lines in suspension were incubated on ice with 100 nM VHH sortagged with Alexafluor647, pelleted by centrifugation, washed and analyzed. Data for PTHR1-GFP is found in FIGS. 17A to 17C. (FIG. 14B) Analysis of VHH binding with microscopy. […] Following staining, cells were washed and treated with fixative in preparation for image acquisition either immediately after staining (0 m) or following a 15-minute incubation in medium at room temperature (15 m).
(§2) Suspensions of cells in PBS were stained for 1 hour on ice in the presence of indicated concentrations of VHH probes functionalized with Alexafluor647. Cells were pelleted by centrifugation and washed with PBS prior to analysis by flow cytometry (BD Accuri C6). Gating was performed on forward scatter/side scatter profiles to analyze intact cells. Data was analyzed using FlowJo version 7.6. The median fluorescent intensity (MFI) of stained cells was used to generate VHH binding dose response curves (FIG. 20).
(§3) It was determined whether VHHs bound to their intended targets on live cells by flow cytometry (FIG. 14A).

human PTHR2 = target: T2, human PTHR2 (human, UniProt P49190 25-550); test: as above
T2 construct: whole, on cells; Stably expressed on HEK293 cells; also called hPTHR2
Protocol: as §1, §2, §3

Human PTHR1 WT = target: T3, Human PTHR1 WT (human, UniProt Q03431 27-593); test: flow cytometry, AlexaFluor647-VHH titrated on HEK293 cells expressing the receptor (MFI); plateau estimated
T3 construct: Stably expressed on HEK293 cells (GP2.3); also called hPTHR1; wild-type PTHR1
T3 sequence: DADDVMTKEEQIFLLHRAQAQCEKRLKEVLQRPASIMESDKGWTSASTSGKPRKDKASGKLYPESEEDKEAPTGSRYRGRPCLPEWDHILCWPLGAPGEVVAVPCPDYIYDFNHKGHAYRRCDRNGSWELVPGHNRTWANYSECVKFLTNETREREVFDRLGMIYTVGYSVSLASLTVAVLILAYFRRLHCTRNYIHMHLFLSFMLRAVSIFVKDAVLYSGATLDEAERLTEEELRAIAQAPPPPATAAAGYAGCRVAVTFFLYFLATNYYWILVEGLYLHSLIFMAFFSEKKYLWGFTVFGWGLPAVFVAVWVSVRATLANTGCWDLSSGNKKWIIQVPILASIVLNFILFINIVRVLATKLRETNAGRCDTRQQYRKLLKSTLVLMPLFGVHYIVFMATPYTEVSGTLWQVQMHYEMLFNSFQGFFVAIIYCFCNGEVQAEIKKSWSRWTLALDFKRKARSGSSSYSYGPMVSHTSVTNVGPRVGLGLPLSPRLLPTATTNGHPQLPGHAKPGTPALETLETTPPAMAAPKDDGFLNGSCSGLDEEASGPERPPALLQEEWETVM
Protocol: as §2
(§4) It was determined whether VHHs bound to their intended targets on live cells by flow cytometry (FIG. 14A). […] To estimate the affinity of the selected VHH for their targets flow cytometry was used to quantify binding.

PTHR16E [2] = target: T4, PTHR16E (human, UniProt Q03431 27-593); test: as above
T4 construct: Stably expressed on HEK293 cells; also called hPTHR16E
T4 chain: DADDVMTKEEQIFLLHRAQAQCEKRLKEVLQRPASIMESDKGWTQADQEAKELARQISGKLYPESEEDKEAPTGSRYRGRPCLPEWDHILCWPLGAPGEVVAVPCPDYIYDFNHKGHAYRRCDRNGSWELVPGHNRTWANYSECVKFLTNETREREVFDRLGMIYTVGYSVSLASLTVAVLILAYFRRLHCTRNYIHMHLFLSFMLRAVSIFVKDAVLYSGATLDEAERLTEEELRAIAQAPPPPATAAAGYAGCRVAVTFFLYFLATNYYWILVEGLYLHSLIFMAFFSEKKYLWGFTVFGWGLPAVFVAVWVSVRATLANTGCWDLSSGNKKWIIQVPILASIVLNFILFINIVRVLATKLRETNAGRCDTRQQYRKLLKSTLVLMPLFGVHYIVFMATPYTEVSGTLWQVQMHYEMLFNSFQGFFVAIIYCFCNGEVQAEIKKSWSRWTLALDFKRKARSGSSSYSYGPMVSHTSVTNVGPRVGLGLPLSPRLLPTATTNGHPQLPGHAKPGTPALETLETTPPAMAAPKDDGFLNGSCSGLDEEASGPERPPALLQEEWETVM
Protocol: as §2, §4

PTHR1GFP = target: T5, PTHR1GFP (human, UniProt Q03431 95-593); test: as above
T5 construct: Human PTHR1 with the pH-sensitive GFP variant pHluorin2 inserted in the exon 2 portion; Stably expressed on HEK293 cells (GPG10); also called hPTHR1-GFP; hPTHR1GFP
Protocol: as §2, §4

rat PTHR1 [3] = target: T6, rat PTHR1 (rat, UniProt P25961 27-591); test: as above
T6 construct: whole, on cells; Stably expressed on HEK293 cells (GR35); also called rPTHR1
T6 sequence (looked up): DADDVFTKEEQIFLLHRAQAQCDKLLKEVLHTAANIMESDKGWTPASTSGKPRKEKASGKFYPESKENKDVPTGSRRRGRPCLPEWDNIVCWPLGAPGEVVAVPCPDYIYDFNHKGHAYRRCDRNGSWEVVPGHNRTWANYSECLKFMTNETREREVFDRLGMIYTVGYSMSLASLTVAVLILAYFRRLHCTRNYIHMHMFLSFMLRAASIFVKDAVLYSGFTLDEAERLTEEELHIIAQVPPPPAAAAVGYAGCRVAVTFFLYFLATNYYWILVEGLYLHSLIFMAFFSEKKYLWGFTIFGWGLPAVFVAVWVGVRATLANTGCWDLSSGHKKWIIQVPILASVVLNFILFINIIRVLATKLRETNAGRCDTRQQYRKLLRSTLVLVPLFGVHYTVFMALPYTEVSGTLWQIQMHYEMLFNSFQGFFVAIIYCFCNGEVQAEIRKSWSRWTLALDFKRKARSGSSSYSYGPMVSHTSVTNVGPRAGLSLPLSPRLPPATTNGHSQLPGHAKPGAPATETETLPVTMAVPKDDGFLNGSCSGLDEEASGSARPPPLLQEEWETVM
Protocol: as §2, §4

PTHR1YFPΔECD [4] = target: T1, PTHR1YFPΔECD; test: cell-based or functional assay
rat PTHR1 [5] = target: T6, rat PTHR1; test: cell-based or functional assay
PTHR1YFPΔECD [6] = target: T1, PTHR1YFPΔECD; test: cell-based or functional assay; remark: listed apart in the source
PTHR16E [7] = target: T4, PTHR16E; test: flow cytometry, AlexaFluor647-VHH titrated on HEK293 cells expressing the receptor (MFI)
Protocol: as §2, §4

T2 sequence (P49190 25-550): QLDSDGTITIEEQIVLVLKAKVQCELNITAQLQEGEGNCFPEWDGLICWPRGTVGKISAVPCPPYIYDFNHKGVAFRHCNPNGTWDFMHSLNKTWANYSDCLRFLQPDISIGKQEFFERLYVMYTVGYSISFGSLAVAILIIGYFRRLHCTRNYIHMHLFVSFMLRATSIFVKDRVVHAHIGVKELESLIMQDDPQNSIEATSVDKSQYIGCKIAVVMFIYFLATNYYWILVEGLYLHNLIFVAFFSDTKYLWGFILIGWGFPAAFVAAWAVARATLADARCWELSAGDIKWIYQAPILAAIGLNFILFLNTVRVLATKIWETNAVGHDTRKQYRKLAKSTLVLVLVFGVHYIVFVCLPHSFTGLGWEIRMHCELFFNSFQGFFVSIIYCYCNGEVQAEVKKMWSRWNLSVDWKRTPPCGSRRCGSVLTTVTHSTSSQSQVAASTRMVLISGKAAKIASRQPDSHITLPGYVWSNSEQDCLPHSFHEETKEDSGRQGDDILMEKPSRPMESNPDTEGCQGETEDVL

B1: VHHPTHR (VHH)
VHH: EVQLVESGGGLVQAGGSLRLSCAASGNIFANNIMGWYRQPPGKEREFVAHVSHDGDSMYAVSVKGRFAISRKDATNLYLQMNSLKPEDTAIYFCRLLNIPTQGRMEGFWGQGTQVTVSS
modifications: C-terminus sortagged to a GGG-probe (AlexaFluor647, tetramethylrhodamine or biotin-azide)
notes: The label depends on the assay; also called VHH22A3; 22A3
binding result (PTHR1YFPΔECD [1]): no binding (tested: 100 nM)
binding result (human PTHR2): no binding (tested: 100 nM)
EC50 (Human PTHR1 WT): 100 to 200 nM
EC50 (PTHR16E [2]): 100 to 200 nM
EC50 (PTHR1GFP): 100 to 200 nM
EC50 (rat PTHR1 [3]): 100 to 200 nM

B2: PTH(1-34) (peptide)
peptide: SVSEIQLMHNLGKHLNSMERVEWLRKKLQDVHNF-NH2
cAMP induction EC50 (PTHR1YFPΔECD [4]): 689 nM
cAMP induction Max (normalized) (PTHR1YFPΔECD [4]): 1 normalized
cAMP induction Max (normalized) (rat PTHR1 [5]): 1 normalized
Stimulation of receptor (cAMP), EC50 (PTHR1YFPΔECD [6]): 689 nM

B3: VHHGFP (VHH)
VHH: QVQLQESGGALVQPGGSLRLSCAASGFPVNRYSMRWYRQAPGKEREWVAGMSSAGDRSSYEDSVKGRFTISRDDARNTVYLQMNSLKPEDTAVYYCNVNVGFEYWGQGTQVTVSS
modifications: C-terminus sortagged to a GGG-probe (AlexaFluor647 or biotin-azide)
notes: also called VHH Enhancer; VHH-enhancer
binding result (human PTHR2): no binding (tested: 100 nM)

B4: VHH6E (VHH)
VHH: QVQLQESGGGLVQPGGSLRLSCAASGFVFENSAMAWYRQAPGKERELIAVIGTTFIKLAESVKGRFTISRDNAKSTVYLQMNNLKPEDTAVYYCSKSGAYWGQGTQVTVSS
modifications: C-terminus sortagged to a GGG-probe (AlexaFluor647, tetramethylrhodamine or biotin-azide)
notes: It recognises a 14-mer from UBC6e; also called VHH05; VHH005
binding result (human PTHR2): no binding (tested: 100 nM)
EC50 (PTHR16E [7]): < 10 nM
